For experiment [1], the target named is human sR3-AP (Ig domains 1-3) V175A (human) (UniProt P05187). The experiment is described as follows: sR3-AP binding assay: conditioned medium on VEGF-CΔNΔC-coated plates, AP chemiluminescence, triplicate.
For experiment [2], the target named is human sR3-AP (Ig domains 1-3) P219L (human) (UniProt P05187). The experiment is described as above.
Chain of human sR3-AP (Ig domains 1-3) P219L (human) (P05187 other isoform, or with tags, fused parts or gaps P219L P219L): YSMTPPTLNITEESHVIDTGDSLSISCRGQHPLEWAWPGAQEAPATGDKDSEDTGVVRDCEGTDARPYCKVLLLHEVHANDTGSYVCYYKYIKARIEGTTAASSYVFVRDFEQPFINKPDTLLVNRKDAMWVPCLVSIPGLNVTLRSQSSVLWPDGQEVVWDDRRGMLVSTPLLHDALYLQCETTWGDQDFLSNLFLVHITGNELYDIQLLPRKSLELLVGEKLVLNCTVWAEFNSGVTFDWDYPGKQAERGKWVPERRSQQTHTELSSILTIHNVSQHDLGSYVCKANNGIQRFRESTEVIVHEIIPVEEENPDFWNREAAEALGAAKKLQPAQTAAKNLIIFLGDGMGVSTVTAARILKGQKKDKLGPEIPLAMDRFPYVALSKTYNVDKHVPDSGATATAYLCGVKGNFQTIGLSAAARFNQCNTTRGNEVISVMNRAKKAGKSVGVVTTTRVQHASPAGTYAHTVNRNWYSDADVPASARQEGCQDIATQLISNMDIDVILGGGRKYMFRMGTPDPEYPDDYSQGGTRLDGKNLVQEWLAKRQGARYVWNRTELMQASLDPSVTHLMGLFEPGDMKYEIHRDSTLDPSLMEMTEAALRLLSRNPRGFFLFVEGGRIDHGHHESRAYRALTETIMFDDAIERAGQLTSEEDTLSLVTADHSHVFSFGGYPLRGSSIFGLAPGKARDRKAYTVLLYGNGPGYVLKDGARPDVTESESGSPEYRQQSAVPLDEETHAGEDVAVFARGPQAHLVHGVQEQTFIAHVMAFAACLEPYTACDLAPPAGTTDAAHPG

Chain of recombinant mature human VEGF-CΔNΔC (P49767 112-215 limits assumed, stated change not applied): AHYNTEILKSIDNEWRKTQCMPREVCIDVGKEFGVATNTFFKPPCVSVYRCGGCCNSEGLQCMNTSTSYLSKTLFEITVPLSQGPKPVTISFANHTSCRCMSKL
Chain of human sR3-AP (Ig domains 1-3) V175A (human) (P05187 other isoform, or with tags, fused parts or gaps V175A V175A): as the sequence (P05187 other isoform, or with tags, fused parts or gaps P219L P219L) above, with V151A, L195P counted along it

As for “recombinant mature human VEGF-CΔNΔC (from UniProt P49767 112-215) (ligand)”, the loss of binding against wild-type human sR3-AP in experiment [1] is 50%; in experiment [2] it was 75%.

The values are drawn from patent US20120058126A1.
